{
  "source": "patent US20190275087A1",
  "about": "“EXPANSION AND DIFFERENTIATION OF STEM CELLS” (Allergan Pharmaceuticals International Limited, priority 2018, published 2019)",
  "key": {"MSCs [1]": {"tested_on": "MSCs", "test": "MSC adipogenic differentiation (intracellular lipid, Oil Red O)", "type": "cell-based, Human", "protocol": "(§1) MSCs were grown in various media formulations and on bare or protein-coated tissue culture wells for 7 days. The expanded cells were harvested, re-seeded on TCP, and differentiated into the adipogenic, osteogenic and chondrogenic lineages using the hMSC Adipogenic BulletKit®, hMSC Osteogenic BulletKit®, and hMSC Chondrogenic BulletKit® (Lonza), respectively, following the manufacturer's instructions.\nTo confirm adipogenesis, cells that had been induced for 25 days were washed with PBS, fixed with 10% (v/v) formalin for 30 min, then washed with water. Cells were incubated with 60% (v/v) isopropanol for 5 min and stained for intracellular lipid droplets with 1.8 mg/mL Oil Red O in isopropanol for 20 min. Excess stain was removed with 5 washes of water."}, "[2]": {"molecular_target": "αv integrins (all αv subunit integrins) on human MSCs (human, UniProt P06756 31-1048)", "sequence (P06756 31-1048, form in doubt)": "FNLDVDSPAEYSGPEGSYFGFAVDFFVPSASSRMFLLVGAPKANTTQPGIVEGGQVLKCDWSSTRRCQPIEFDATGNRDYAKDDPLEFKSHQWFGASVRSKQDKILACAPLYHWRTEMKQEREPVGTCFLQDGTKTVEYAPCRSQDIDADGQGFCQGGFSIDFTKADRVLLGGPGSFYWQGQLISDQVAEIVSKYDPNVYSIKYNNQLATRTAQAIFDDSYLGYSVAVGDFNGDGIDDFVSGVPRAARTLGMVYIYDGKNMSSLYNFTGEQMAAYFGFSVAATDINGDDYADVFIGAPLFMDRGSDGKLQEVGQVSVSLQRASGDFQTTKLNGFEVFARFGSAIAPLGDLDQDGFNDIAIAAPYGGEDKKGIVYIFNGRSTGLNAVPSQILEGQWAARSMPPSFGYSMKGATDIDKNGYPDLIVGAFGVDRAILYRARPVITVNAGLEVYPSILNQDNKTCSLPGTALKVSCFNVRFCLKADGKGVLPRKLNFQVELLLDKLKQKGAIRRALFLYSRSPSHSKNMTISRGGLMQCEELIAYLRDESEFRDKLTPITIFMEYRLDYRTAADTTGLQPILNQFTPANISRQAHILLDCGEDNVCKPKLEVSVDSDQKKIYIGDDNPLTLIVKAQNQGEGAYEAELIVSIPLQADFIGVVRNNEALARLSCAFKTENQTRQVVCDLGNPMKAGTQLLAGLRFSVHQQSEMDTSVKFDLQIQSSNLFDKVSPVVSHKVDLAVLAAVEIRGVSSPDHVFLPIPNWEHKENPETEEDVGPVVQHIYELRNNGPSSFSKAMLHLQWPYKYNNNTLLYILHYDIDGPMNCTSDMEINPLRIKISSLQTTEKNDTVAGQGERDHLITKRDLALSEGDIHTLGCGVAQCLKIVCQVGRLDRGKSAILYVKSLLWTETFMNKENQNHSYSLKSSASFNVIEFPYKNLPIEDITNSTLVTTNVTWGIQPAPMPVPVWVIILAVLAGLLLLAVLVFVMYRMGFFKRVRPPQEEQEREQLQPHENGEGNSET", "test": "cell-based or functional assay"}, "MSCs [3]": {"tested_on": "MSCs", "test": "MSC chondrogenic differentiation (glycosaminoglycans, Alcian Blue)", "type": "cell-based, Human", "conditions": "for decreased MSC chondrogenesis: tropoelastin addition during differentiation", "protocol": "as §1\nTo confirm chondrogenesis, cell pellets that had been induced for 14 days were washed with PBS, embedded in 1.5% (w/v) agar containing 0.85% (w/v) NaCl, and fixed with 10% (v/v) formalin overnight. The samples were dehydrated in 70% (v/v) ethanol for 1 day, then paraffin-embedded, sectioned, mounted onto slides, stained with Alcian Blue (pH 2.5) for 1 hour and counterstained with Nuclear Fast Red. Samples were imaged with an Olympus VS120 Slide Scanner."}, "MSCs [4]": {"tested_on": "MSCs", "test": "Flow cytometry of MSC surface marker expression", "type": "cell-based, Human", "protocol": "MSCs cultured for 5 or 7 days in various media formulations and on bare or protein-coated tissue culture wells were trypsinised and pelleted. The cell pellets were washed with 0.22 μm filtered FACS buffer (5% v/v FBS in PBS) and re-centrifuged at 270 g for 5 min. The cells were resuspended in FACS buffer to a concentration of 100,000 cells in 100 μL total volume, and probed for MSC marker expression using the Human Mesenchymal Stem Cell Verification Flow Kit (R&D Systems®). Isotype and unstained control samples were prepared using MSCs cultured in standard growth media on tissue culture plastic. Cells were analyzed using a BD™ Biosciences LSR II Flow Cytometer System. Singlet cells were determined by their forward scatter-to-side scatter and scatter height-to-width ratios, while viable cells were identified by exclusion of 1:20 propidium iodide. Only singlet, viable cells were analyzed for marker expression."}, "MSCs [5]": {"tested_on": "MSCs", "test": "MSC osteogenic differentiation (mineralized calcium, Alizarin Red S)", "type": "cell-based, Human", "protocol": "as §1\nTo confirm osteogenesis, cells that had been induced for 14 days were fixed and stained for mineralized calcium deposits with Alizarin Red S, as previously described. Cells from the adipogenic and osteogenic experiments were imaged with a Zeiss Axio Vert.A1 microscope using an AxioCam 105 colour camera."}, "MSCs [6]": {"tested_on": "MSCs", "test": "Cell migration via haptotaxis", "type": "cell-based, Human", "conditions": "5 days post-seeding", "protocol": "Polydimethylsiloxane (PDMS) was casted into 3D printed molds to create a circular shape with three rectangular cutouts, in which the middle rectangle was equidistant from the flanking rectangles. The PDMS stencil was placed inside a well plate and pressed tightly against the well surface to create watertight seal. The top and bottom rectangular chambers were filled with tropoelastin solution (20 μg/mL) or PBS, respectively, and air dried overnight. MSCs (1.2×10^6 cells/cm^2) were seeded into the middle chamber and allowed to attach for at least 2 hrs. The PDMS stencil was removed, and the culture well was covered with normal media. For up to 5 days, cells were stained daily with NucBlue™ Live ReadyProbes™ Reagent (Life Technologies) for 15 min, washed once with PBS, covered with normal media, and imaged under fluorescence at 360/460 nm using a Nikon Ti-E Live Cell Microscope. Cell migration into regions defined by tropoelastin or PBS coating was quantified via relative fluorescent areas using ImageJ software."}, "[7]": {"conditions": "tropoelastin addition during MSC expansion"}, "[8]": {"conditions": "tropoelastin addition during differentiation"}, "[9]": {"conditions": "tropoelastin during both expansion and differentiation stages"}, "[10]": {"conditions": "TE days 2-5, 3-6 or 4-7 of 7-day proliferation period"}, "[11]": {"conditions": "tropoelastin-coated surfaces, all media formulations, 5 days post-seeding"}},
  "data": [
    {"molecule": "recombinant human tropoelastin (Elastagen) (ligand, UniProt P15502-2 27-724, looked up) GGVPGAIPGGVPGGVFYPGAGLGALGGGALGPGGKPLKPVPGGLAGAGLGAGLGAFPAVTFPGALVPGGVADAAAAYKAAKAGAGLGGVPGVGGLGVSAGAVVPQPGAGVKPGKVPGVGLPGVYPGGVLPGARFPGVGVLPGVPTGAGVKPKAPGVGGAFAGIPGVGPFGGPQPGVPLGYPIKAPKLPGGYGLPYTTGKLPYGYGPGGVAGAAGKAGYPTGTGVGPQAAAAAAAKAAAKFGAGAAGVLPGVGGAGVPGVPGAIPGIGGIAGVGTPAAAAAAAAAAKAAKYGAAAGLVPGGPGFGPGVVGVPGAGVPGVGVPGAGIPVVPGAGIPGAAVPGVVSPEAAAKAAAKAAKYGARPGVGVGGIPTYGVGAGGFPGFGVGVGGIPGVAGVPGVGGVPGVGGVPGVGISPEAQAAAAAKAAKYGVGTPAAAAAKAAAKAAQFGLVPGVGVAPGVGVAPGVGVAPGVGLAPGVGVAPGVGVAPGVGVAPGIGPGGVAAAAKSAAKVAAKAQLRAAAGLGAGIPGLGVGVGVPGLGVGAGVPGLGVGAGVPGFGAVPGALAAAKAAKYGAAVPGVLGGLGALGGVGIPGGVVGAGPAAAAAAAKAAAKAAQFGLVGAAGLGGLGVGGLGVPGVGGLGGIPPAAAAKAAKYGAAGLGGVLGGAGQFPLGGVAARPGFGLSPIFPGGACLGKACGRKRK", "values": [
      {"measurement": "intracellular lipid formation", "setting": "MSCs [1]; 20 μg/ml TE during both expansion and induction stages", "value": "increase in intracellular lipid formation"},
      {"measurement": "intracellular lipid formation compared to culture lacking TE", "setting": "MSCs [1]; induced in the presence of TE", "value": "increase in intracellular lipid formation"},
      {"measurement": "increased adipogenesis", "setting": "MSCs [1]; [7]", "value": 33, "unit": "%"},
      {"measurement": "increased adipogenesis", "setting": "MSCs [1]; [8]", "value": 19, "unit": "%"},
      {"measurement": "promoted adipogenesis", "setting": "MSCs [1]; [9]", "value": "69-85%"},
      {"measurement": "focal adhesions per cell (vinculin staining) of MSCs on tropoelastin compared to those on BSA", "setting": "[2]", "value": 1.5, "unit": "fold"},
      {"measurement": "effect on chondrogenic differentiation", "setting": "MSCs [3]; TE added during the induction stage", "value": "inhibited chondrogenic differentiation"},
      {"measurement": "pro-chondrogenic effects versus timing of exposure during expansion", "setting": "MSCs [3]; [10]", "value": "observed only when tropoelastin was present in the early stages of expansion"},
      {"measurement": "concentration during induction stage that significantly inhibited chondrogenic differentiation", "setting": "MSCs [3]; TE present during induction", "value": "≥ 2", "unit": "µg/mL"},
      {"measurement": "glycosaminoglycan production", "setting": "MSCs [3]; expanded in 20 μg/ml TE, induced in the absence of TE", "value": "highest extent of glycosaminoglycan production"},
      {"measurement": "glycosaminoglycan levels compared to cells expanded without TE", "setting": "MSCs [3]; expanded in presence of TE, TE not present during differentiation", "value": "increased glycosaminoglycan levels"},
      {"measurement": "increased chondrogenesis compared to cells exposed from days 4-7", "setting": "MSCs [3]; exposed days 2-5 of expansion period", "value": 71, "unit": "%"},
      {"measurement": "improved chondrogenesis", "setting": "MSCs [3]; [7]", "value": 134, "unit": "%"},
      {"measurement": "decreased MSC chondrogenesis", "setting": "MSCs [3]; cells expanded with tropoelastin", "value": 80, "unit": "%"},
      {"measurement": "decreased MSC chondrogenesis", "setting": "MSCs [3]; cells expanded without tropoelastin", "value": 63, "unit": "%"},
      {"measurement": "MSC marker expression profile", "setting": "MSCs [4]; 20 μg/mL soluble in media", "value": "displayed characteristic CD90+, CD105+, CD73+ and lineage negative expression profiles"},
      {"measurement": "MSC phenotype (marker expression)", "setting": "MSCs [4]; substrate-bound, replacing one or both growth factors, full or reduced serum media", "value": "fully retained"},
      {"measurement": "cells expressing positive MSC markers CD90, CD105 and CD73", "setting": "MSCs [4]; [11]", "value": "more than 95%"},
      {"measurement": "cells lacking hematopoietic markers CD34, CD45, CD11b, CD79a and HLA-DR", "setting": "MSCs [4]; [11]", "value": "more than 98%"},
      {"measurement": "osteogenesis versus timing of exposure during expansion", "setting": "MSCs [5]; [10]", "value": "maximum effect associated with tropoelastin exposure in the later stages of expansion"},
      {"measurement": "increased osteogenesis compared to cells grown on TCP", "setting": "MSCs [5]; cells grown on coating", "value": 113, "unit": "%"},
      {"measurement": "mineralized calcium", "setting": "MSCs [5]; cells induced and exposed to TE", "value": "increase in mineralized calcium concentrations"},
      {"measurement": "MSC osteogenesis with tropoelastin added to hyaluronic acid", "setting": "MSCs [5]; different molecular weight hyaluronic acid formulations", "value": "promoted MSC osteogenesis"},
      {"measurement": "increased osteogenesis compared to cells exposed from days 2-5", "setting": "MSCs [5]; exposed days 4-7 of seven-day expansion", "value": 24, "unit": "%"},
      {"measurement": "osteogenesis dose response", "setting": "MSCs [5]; grown in at least 2 μg/mL TE and induced in 20 μg/mL TE", "value": "Maximum osteogenesis"},
      {"measurement": "improved osteogenesis", "setting": "MSCs [5]; [8]", "value": 55, "unit": "%"},
      {"measurement": "increased osteogenesis", "setting": "MSCs [5]; [9]", "value": "up to 131%"},
      {"measurement": "improved osteogenic potential", "setting": "MSCs [5]; tropoelastin present during MSC expansion", "value": 42, "unit": "%"},
      {"measurement": "more cells migrated to the tropoelastin-coated region compared to the control", "setting": "MSCs [6]", "value": "45±8", "unit": "%"}
    ]}
  ]
}
